Results as given in article PMC10397247.
Read-outs that look alike come from different tables or passages of the source.

Experiments:
Assay in all cases: two-hybrid library CCmax;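 also: natural log of median RNA to DNA barcode read ratio; higher means stronger binding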
[1] = target: T1, 4H2774-AA; conditions: mean of both orientations
T1 chain: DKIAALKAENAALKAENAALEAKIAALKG

[2] = target: T2, 4H3718-AA
T2 chain: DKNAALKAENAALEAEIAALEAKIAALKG

[3] = target: T3, 4H982-AA; conditions: mean of both orientations
T3 chain: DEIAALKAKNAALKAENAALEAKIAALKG

[4] = target: 4H_GCN4
[5] = target: T4, 4H3697-AA; conditions: mean of both orientations
T4 chain: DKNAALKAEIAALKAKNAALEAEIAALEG

[6] = target: T5, 4H697-AA; conditions: mean of both orientations
T5 chain: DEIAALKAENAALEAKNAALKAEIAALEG

[7] = target: T6, 4H3865-AA; conditions: mean of both orientations
T6 chain: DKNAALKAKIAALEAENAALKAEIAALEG

[8] = target: T7, 4H570-AA
T7 chain: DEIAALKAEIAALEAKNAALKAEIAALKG

[9] = target: T8, 4H384-AA; conditions: mean of both orientations
T8 chain: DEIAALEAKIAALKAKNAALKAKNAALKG

[10] = target: T9, 4H3631-AA; conditions: mean of both orientations
T9 chain: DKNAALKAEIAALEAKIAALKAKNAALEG

[11] = target: GCN2_T
[12] = target: T10, 4H_BCR; conditions: mean of both orientations
T10 chain: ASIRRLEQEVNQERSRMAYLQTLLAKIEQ

[13] = target: T11, 4H_APH
T11 chain: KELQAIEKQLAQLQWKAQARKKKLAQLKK

[14] = target: T12, 4H3606-AA
T12 chain: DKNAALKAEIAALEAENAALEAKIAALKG

[15] = target: T13, 4H717-AA; conditions: mean of both orientations
T13 chain: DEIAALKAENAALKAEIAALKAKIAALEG

[16] = target: T14, 4H797-AA; conditions: mean of both orientations
T14 chain: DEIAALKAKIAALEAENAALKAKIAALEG

[17] = target: T15, 4H2611-AA
T15 chain: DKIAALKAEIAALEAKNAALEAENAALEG

[18] = target: T16, 4H3009-AA; conditions: mean of both orientations
T16 chain: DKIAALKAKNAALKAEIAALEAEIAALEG

[19] = target: T17, 4H2725-AA; conditions: mean of both orientations
T17 chain: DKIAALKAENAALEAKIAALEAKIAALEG

[20] = target: T18, 4H94-AA; conditions: mean of both orientations
T18 chain: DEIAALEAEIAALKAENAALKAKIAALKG

[21] = target: T19, 4H2253-AA; conditions: mean of both orientations
T19 chain: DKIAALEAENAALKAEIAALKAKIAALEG

[22] = target: T20, 4H2438-AA; conditions: mean of both orientations
T20 chain: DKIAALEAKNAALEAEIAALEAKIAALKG

[23] = target: T21, 4H3395-AA; conditions: mean of both orientations
T21 chain: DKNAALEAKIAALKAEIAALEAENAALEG

[24] = target: T22, 4H310-AA; conditions: mean of both orientations
T22 chain: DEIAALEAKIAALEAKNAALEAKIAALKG

[25] = target: T23, 4H2649-AA; conditions: mean of both orientations
T23 chain: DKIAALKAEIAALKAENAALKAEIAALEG

[26] = target: T24, 4H2473-AA; conditions: mean of both orientations
T24 chain: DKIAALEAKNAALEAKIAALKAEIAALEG

[27] = target: T25, 4H3120-AA; conditions: mean of both orientations
T25 chain: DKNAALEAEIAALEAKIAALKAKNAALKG

[28] = target: T26, 4H3016-AA; conditions: mean of both orientations
T26 chain: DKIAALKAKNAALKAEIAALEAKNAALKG

[29] = target: T27, 4H850-AA; conditions: mean of both orientations
T27 chain: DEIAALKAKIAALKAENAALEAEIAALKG

[30] = target: T28, 4H3590-AA; conditions: mean of both orientations
T28 chain: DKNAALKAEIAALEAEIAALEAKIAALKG

[31] = target: T29, 4H909-AA; conditions: mean of both orientations
T29 chain: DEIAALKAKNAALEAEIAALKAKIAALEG

[32] = target: T30, 4H2698-AA
T30 chain: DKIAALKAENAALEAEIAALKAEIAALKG

[33] = target: T31, 4H3410-AA; conditions: mean of both orientations
T31 chain: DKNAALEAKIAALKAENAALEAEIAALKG

[34] = target: T32, 4H710-AA; conditions: mean of both orientations
T32 chain: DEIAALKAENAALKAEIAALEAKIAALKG

[35] = target: T33, 4H2274-AA; conditions: mean of both orientations
T33 chain: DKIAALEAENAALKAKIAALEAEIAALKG

[36] = target: T34, 4H3165-AA
T34 chain: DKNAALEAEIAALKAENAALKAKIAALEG

[37] = target: T35, 4H629-AA; conditions: mean of both orientations
T35 chain: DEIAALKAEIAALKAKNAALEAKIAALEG

[38] = target: T36, 4H2330-AA; conditions: mean of both orientations
T36 chain: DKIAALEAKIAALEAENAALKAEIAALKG

[39] = target: T37, 4H3381-AA; conditions: mean of both orientations
T37 chain: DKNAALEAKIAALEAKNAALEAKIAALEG

[40] = target: T38, 4H536-AA; conditions: mean of both orientations
T38 chain: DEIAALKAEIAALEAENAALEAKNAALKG

[41] = target: T39, 4H458-AA; conditions: mean of both orientations
T39 chain: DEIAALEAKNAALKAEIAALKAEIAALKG

[42] = target: T40, 4H745-AA; conditions: mean of both orientations
T40 chain: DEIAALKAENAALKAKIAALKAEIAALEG

[43] = target: T41, 4H3130-AA; conditions: mean of both orientations
T41 chain: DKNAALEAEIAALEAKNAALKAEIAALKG

4H_GCN4, sequence (chain, as listed by the source): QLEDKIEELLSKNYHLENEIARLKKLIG

DENAALEAEIAALEAKIAALEAKNAALKG [4H1064-AA]
interaction score [1]: -1.39

DKNAALKAEIAALEAENAALEAKIAALKG [4H3606-AA]
interaction score [2]: -1.15 | interaction score [3]: 0.00779 | interaction score [4]: -0.288 | interaction score [5]: 1.42 | interaction score [6]: -0.116 | interaction score [7]: 1.86 | interaction score [8]: -2.43 | interaction score [9]: 1.18 | interaction score [10]: -0.831 | interaction score [11]: -0.266 | interaction score [12]: -0.919 | interaction score ([13]; mean of both orientations): -1.27 | interaction score [14]: -0.0341 | interaction score [15]: -1.65

DENAALKAKIAALEAKNAALEAKIAALEG [4H1845-AA]
interaction score ([2]; mean of both orientations): -1.65 | interaction score [3]: -1.6 | interaction score [5]: -1.83 | interaction score [6]: -1.65 | interaction score [7]: -1.31 | interaction score [16]: -0.965 | interaction score [9]: -1.55 | interaction score [10]: -1.57 | interaction score ([14]; mean of both orientations): -0.353 | interaction score ([17]; mean of both orientations): -1.56 | interaction score [15]: -1.01

DENAALEAKIAALKAKIAALKAEIAALEG [4H1385-AA]
interaction score [18]: 1.33 | interaction score [19]: 0.284 | interaction score [20]: -0.994 | interaction score [21]: -1.44 | interaction score [22]: 1.55 | interaction score [4]: -1.45 | interaction score [23]: 0.689 | interaction score [24]: -0.553 | interaction score [25]: -1.29 | interaction score [26]: -0.93 | interaction score [27]: 0.706 | interaction score [5]: -0.69 | interaction score [28]: -0.959 | interaction score [29]: -0.784 | interaction score [30]: 2.4 | interaction score [7]: -1.52 | interaction score [31]: -1.36 | interaction score ([32]; mean of both orientations): 0.136 | interaction score [33]: -0.247 | interaction score [16]: -1.08 | interaction score ([8]; mean of both orientations): -0.556 | interaction score [9]: -0.727 | interaction score [34]: -0.564 | interaction score ([11]; mean of both orientations): -1.2 | interaction score [35]: -0.953 | interaction score [12]: -1.56 | interaction score ([13]; mean of both orientations): -1.13 | interaction score [36]: -1.48 | interaction score [37]: -1.12 | interaction score [38]: -1.41 | interaction score [39]: -1.28 | interaction score [40]: 1.04 | interaction score [41]: -0.706 | interaction score [42]: -1.3 | interaction score [43]: -0.837

DENAALEAENAALKAKIAALKAEIAALEG [4H1257-AA]
interaction score [4]: -2.56 | interaction score [16]: -1.57 | interaction score [1]: 2.09 | interaction score [11]: -1.92 | interaction score [12]: -2.19 | interaction score ([13]; mean of both orientations): -1.94 | interaction score [15]: 0.282

DENAALEAKIAALKAEIAALEAKIAALKG [4H1350-AA]
interaction score [4]: -1.31 | interaction score [30]: 2.09 | interaction score [9]: -0.758 | interaction score [11]: -1.41 | interaction score [12]: -1.28 | interaction score ([13]; mean of both orientations): -1.67 | interaction score [17]: -1.74

DKIAALEAEIAALKAKNAALEAKIAALEG [4H2165-AA]
interaction score [21]: -1.02 | interaction score [4]: -1.58 | interaction score [1]: -0.839 | interaction score [11]: -1.41 | interaction score [12]: -0.379 | interaction score [13]: -1.76 | interaction score ([14]; mean of both orientations): -0.638 | interaction score [38]: -1.33 | interaction score [15]: -1.25

DENAALEAENAALEAEIAALEAEIAALEG [4H1153-AA]
interaction score ([2]; mean of both orientations): 0.217 | interaction score [3]: -0.675 | interaction score [5]: -1.72 | interaction score [6]: -1.68 | interaction score [7]: -1.67 | interaction score [9]: -0.314 | interaction score [10]: 0.849 | interaction score [14]: -0.981 | interaction score ([17]; mean of both orientations): -1.92 | interaction score [15]: -1.1

DENAALEAKIAALKAKNAALKAEIAALEG [4H1401-AA]
interaction score ([2]; mean of both orientations): 0.196 | interaction score [3]: -0.483 | interaction score [4]: -1.67 | interaction score [5]: -0.792 | interaction score [6]: -1.39 | interaction score [7]: 0.227 | interaction score [9]: -1.67 | interaction score [10]: -1.4 | interaction score [11]: -1.62 | interaction score [12]: -1.64 | interaction score ([13]; mean of both orientations): -1.86 | interaction score ([14]; mean of both orientations): 2.07 | interaction score ([17]; mean of both orientations): -1.66 | interaction score [15]: -1.5

DEIAALEAENAALEAKIAALKAENAALEG [4H171-AA]
interaction score [18]: 2.13 | interaction score [19]: -1.12 | interaction score [20]: -1.72 | interaction score [21]: -1.44 | interaction score [22]: 0.734 | interaction score [23]: -1.24 | interaction score [24]: -1.66 | interaction score [25]: -0.999 | interaction score [26]: -1.21 | interaction score [27]: -1.42 | interaction score [5]: -0.767 | interaction score [28]: 1.66 | interaction score [29]: -1.11 | interaction score [30]: -0.733 | interaction score [7]: -0.476 | interaction score [31]: -1.12 | interaction score [32]: -0.616 | interaction score [33]: -0.741 | interaction score [16]: -1.36 | interaction score ([8]; mean of both orientations): -0.493 | interaction score [9]: -1.36 | interaction score [34]: 0.905 | interaction score [35]: -1.17 | interaction score ([36]; mean of both orientations): -1.21 | interaction score [37]: -1.29 | interaction score [38]: -2.02 | interaction score [39]: -1.57 | interaction score [40]: -1.32 | interaction score [41]: -0.711 | interaction score [42]: -1.45 | interaction score [43]: 0.164

DEIAALEAENAALKAKNAALKAEIAALEG [4H249-AA]
interaction score [4]: -1.66 | interaction score [1]: 1.92 | interaction score [11]: -1.96 | interaction score [12]: -1.72 | interaction score ([13]; mean of both orientations): -1.97 | interaction score ([17]; mean of both orientations): -1.99 | interaction score [39]: -1.79
